According to patent publication US20200292553A1, “COMPOSITION FOR PREDICTING OR DIAGNOSING LIVER DISEASE, AND LIVER DISEASE PREDICTION OR DIAGNOSIS METHOD USING SAME” (SEOUL NATIONAL UNIVERSITY HOSPITAL, priority 2017, published 2020):

B1: rhGDF15: Recombinant human GDF15 (rhGDF15; R&D Systems; 957-GD-025), growth differentiation factor 15 protein (protein, listed as Homo sapiens)
chain: ARARNGDHCPLGPGRCCRLHTVRASLEDLGWADWVLSPREVQVTMCIGACPSQFRAANMHAQIKTSLHRLKPDTVPAPCCVPASYNPMVLIQKTDTGVSLQTYDDLLAKDCHCI

Experiments:
Kupffer cells = assay: GDF15 mRNA expression after palmitate treatment, Kupffer cells; type: cell-based; settings: for increase in GDF15 mRNA expression: after 6 hours
Description: Primary hepatic cells were isolated and differentiated into hepatocytes, HSCs, Kupffer cells, and liver sinusoidal endothelial cells (LSECs). Kupffer cells are macrophages present in the liver, and are known to play an essential role in the initiation of inflammation. To distinguish Kupffer cells and LSECs, magnetic-activated cell sorting (MACS) was performed using the MiniMACS™ separator system (MiltenyiBiotec, Seoul, Korea). The purity of LSECs was evaluated by fluorescence-activated cell sorting using anti-PE antibody (purity of 90% or higher). Primary cells were cultured in 1.5 mL of a serum-free medium for 4 hours, and treated with 5(w/w)% of bovine serum albumin (BSA, control), 200 μM palmitate/5(w/w)% BSA solution, and 500 μM palmitate/5(w/w)% BSA, respectively. After 3 and 6 hours, cells were collected and further analyzed. Reverse-transcription polymerase chain reaction (RT-PCR) and real-time PCR were performed to assess the expression of GDF15 mRNA after palmitate treatment.

primary hepatocytes = assay: rhGDF15 treatment of primary hepatocytes, immunoblotting; type: cell-based, mouse; settings: FIG. 4D
Description: (§1) Recombinant human GDF15 (rhGDF15; R&D Systems; 957-GD-025) was added to LX-2 cells (human hepatic stellate cells, KAIST), cultured in the presence of 100 ng/mL GDF15 and 10 ng/mL TGF-β, and primary hepatocytes, directly isolated from the mouse liver, at […] per 3×10^5 cells/6 wells. The levels of fibrosis markers, such as alpha-smooth muscle actin (α-SMA) and collagen 1, were assessed by immunoblotting, immunohistochemistry, and immunofluorescence staining.

[1] = system: LX-2 cells (human hepatic stellate cells); assay: rhGDF15 treatment of LX-2 cells, fibrosis markers by immunoblotting and immunofluorescence; type: cell-based
Description: as §1

Row | Molecule | increase in GDF15 mRNA expression (Kupffer cells; 200 μM, P=0.009, FIG. 5B) | increase in GDF15 mRNA expression level (Kupffer cells; 500 μM, after 3 hours, P=0.004, FIG. 5A) | increase in GDF15 mRNA expression (Kupffer cells; 500 μM, P=0.032, FIG. 5B) | phosphorylation of SMAD2 and SMAD3 (primary hepatocytes) | cell apoptosis ([1]; LX-2 cells, FIG. 4A) | expression of fibrosis markers α-SMA and collagen 1 ([1]; LX-2 cells, immunoblotting, FIG. 4A) | α-SMA expression, immunofluorescent staining ([1]; LX-2 cells, treatment for 12 hours, FIG. 4B) | acute stimulatory effect on hepatocytes ([1]; after 12 hours) | time to increase of α-SMA level after treatment ([1]; after GDF15 treatment) | time to induction of SMAD phosphorylation after treatment ([1]; after GDF15 treatment) | phosphorylation of SMAD2 and SMAD3 ([1]; printed as human hepatocytes, FIG. 4C (LX-2 cells))
1 | CCCCCCCCCCCCCCCC(=O)O [palmate, palmitate] | 2.5 fold | approximately 2 fold | 1.5 fold | – | – | – | – | – | – | – | –
2 | B1 | – | – | – | upregulating | not influenced | increased | high expression | remarkably reduced | ≤ 12 h | ≤ 3 h | increasing
